Molecular target: T1, ligand binding domain of the nuclear receptor Fushi Tarazu factor-1 (LBD FTZ-F1) (Drosophila, UniProt P33244 786-1027, 15N-labelled in the experiment with the peptide; unlabelled in the experiment with GCEC)
T1 construct: cDNA synthesised (Gene Art); Cloned into pET-15b; residues left by the thrombin site are not described; Purified protein runs as a 26.5 kDa globular protein; also called FTZ-F1 LBD; LDB FTZ-F1 (786-1027); source: E. coli BL21(DE3), soluble fraction, purified (Ni-NTA, thrombin, second IMAC, SEC on Superdex75)
T1 sequence (looked up): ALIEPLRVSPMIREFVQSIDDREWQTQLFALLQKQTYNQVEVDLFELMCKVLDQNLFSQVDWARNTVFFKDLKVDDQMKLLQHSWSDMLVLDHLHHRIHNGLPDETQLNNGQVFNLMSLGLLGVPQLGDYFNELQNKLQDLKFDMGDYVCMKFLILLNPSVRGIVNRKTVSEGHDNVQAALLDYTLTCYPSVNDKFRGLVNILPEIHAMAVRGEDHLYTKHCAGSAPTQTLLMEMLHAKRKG
Test: NMR titration; 1H-15N HSQC chemical shift perturbation, 15N-labelled LBD FTZ-F1 after incubation with the … peptide (concentration set by its solubility limit), buffer F with 10% D2O, 22 °C, 800 MHz
Conditions: both partners purified

binding result: binds
B1: 9-residue GCEC peptide (GCE^PEP) (peptide)
peptide: LRLIQNLQK
notes: stretch of the C-terminal region of GCE, D. melanogaster, with the novel NR-box (LIXXL motif; LIQNL); source: synthetic peptide (PSL GmbH, Heidelberg)
